Data on 2 molecules can be found in publication PMC4909229, “Characterization of Staphylococcus aureus Primosomal DnaD Protein: Highly Conserved C-Terminal Region Is Crucial for ssDNA and PriA Helicase Binding but Not for DnaA Protein-Binding and Self-Tetrameri”.

Some results are limits rather than exact numbers.

Series [1] deals with T1, SaDnaD1-195 (Staphylococcus aureus subsp. aureus ED98, UniProt Q9EUT0 1-195, del196-228).
T1 sequence: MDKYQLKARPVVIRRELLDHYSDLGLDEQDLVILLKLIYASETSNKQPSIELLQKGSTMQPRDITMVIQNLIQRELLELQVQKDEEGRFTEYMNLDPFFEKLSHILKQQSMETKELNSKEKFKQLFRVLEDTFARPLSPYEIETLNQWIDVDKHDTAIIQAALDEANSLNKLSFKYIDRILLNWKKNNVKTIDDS
As to the kind of experiment: tryptophan fluorescence quenching; DNA:protein ratio 1; EMSA: 20 mM Tris-HCl pH 8.0, 100 mM NaCl, 25 C, 30 min, 1.7 nM DNA, gel at 4 C in TBE; fluorescence: 20 mM Tris-HCl pH 8.0, 200 or 500 mM NaCl, 0.1 uM tetramer. The conditions noted are these: protein: recombinant; tags: C-terminal His tag (pET21e); chain copies: 4; label: 5'-32P (EMSA); unlabeled in fluorescence titration. Background: In EMSA bound probe runs differently from free probe, usually more slowly.

The target of the next series is T2, SaDnaD1-204 (Staphylococcus aureus subsp. aureus ED98, UniProt Q9EUT0 1-204, del205-228).
T2 sequence: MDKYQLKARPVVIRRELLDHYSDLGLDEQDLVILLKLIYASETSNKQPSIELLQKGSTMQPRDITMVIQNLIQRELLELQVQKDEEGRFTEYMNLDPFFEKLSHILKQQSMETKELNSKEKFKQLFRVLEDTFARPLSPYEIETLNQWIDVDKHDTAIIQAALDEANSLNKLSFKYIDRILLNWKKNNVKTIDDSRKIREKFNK
The description is as above. The conditions noted are these: protein: recombinant; tags: C-terminal His tag (pET21e); chain copies: 4; label: 5'-32P (EMSA); unlabeled in fluorescence titration.

Series [2] deals with T3, SaDnaD1-200 (Staphylococcus aureus subsp. aureus ED98, UniProt Q9EUT0 1-200, del201-228).
T3 sequence: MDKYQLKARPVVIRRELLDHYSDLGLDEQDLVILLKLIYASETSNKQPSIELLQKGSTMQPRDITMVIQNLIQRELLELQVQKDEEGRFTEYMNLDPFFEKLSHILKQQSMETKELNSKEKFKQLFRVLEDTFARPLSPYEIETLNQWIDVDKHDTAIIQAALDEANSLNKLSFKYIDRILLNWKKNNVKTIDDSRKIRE
The series is described as above. As to conditions: protein: recombinant; tags: C-terminal His tag (pET21e); chain copies: 4; label: 5'-32P (EMSA); unlabeled in fluorescence titration.

Series [3] addresses T1, SaDnaD1-195. As to the kind of experiment: EMSA; EMSA: 20 mM Tris-HCl pH 8.0, 100 mM NaCl, 25 C, 30 min, 1.7 nM DNA, gel at 4 C in TBE; fluorescence: 20 mM Tris-HCl pH 8.0, 200 or 500 mM NaCl, 0.1 uM tetramer. The conditions noted are these: protein: recombinant; tags: C-terminal His tag (pET21e); chain copies: 4; label: 5'-32P.
The target of series [4] is T3, SaDnaD1-200. Described as above. The conditions noted are these: protein: recombinant; tags: C-terminal His tag (pET21e); chain copies: 4; label: 5'-32P.

B1: dT65 (ssDNA)
DNA: TTTTTTTTTTTTTTTTTTTTTTTTTTTTTTTTTTTTTTTTTTTTTTTTTTTTTTTTTTTTTTTTT
As for B1, the binding signal in the series with SaDnaD1-195 [1] is below 5 % quenching; with SaDnaD1-204 it was around 20 % quenching; with SaDnaD1-200 [2] it was below 10 % quenching.

In the case of TTTTTTTTTTTTTTTTTTTTTTTTTTTTTTTTTTTTTTTT (ssDNA) [dT40], the binding result in the series with SaDnaD1-195 [3] and in the series with SaDnaD1-200 [4] was “no binding” in each case.
